Measured values published in the nanobody polyreactivity screen of Harvey et al. (2022).

Test: yeast display, Sf9 membrane polyspecificity reagent, FACS + sequencing; frameworks hold sequencing errors
In short: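 A synthetic nanobody library was expressed on Saccharomyces cerevisiae BJ5465 by galactose induction for 36–48 hours. The library was stained for 1 hour at 4 °C with 10% biotinylated, detergent-solubilized Sf9 membrane reagent and enriched with streptavidin microbeads before FACS. Low and high (top ~1%) gates were set on anti-HA fluorescence for expression and streptavidin fluorescence for reagent binding, and each polyreactivity label reflects the gate of origin.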

| Sequence | polyreactivity (PSR sort gate) |
| --- | --- |
| KVQLVDSGGGLVQAGGSLRLSCAASGSTSKCYAMGWYRPEPGKERELVAAITKTGGRTYYADSVKGRFTISRDNAKNTVYLQMNSLKPEDTADYYCAVEYLRGFIVIYDYWGQGTQVTVTS | high polyreactivity |
| KVQLVESAVGLVQAGGSLRLSCAASGPTFWRNAMGWYRQAPGKERELVAAISRGGSTNYADSVKGRFTISRDNAKNTVYLLMNSLKPEDTAVYYCAARYYYRYNYWGQGTQVTVSS | high polyreactivity |
| KVQLVESGGCLVQAGGSLSLSCAASGSIFAVYAMGWYRQAPGKERELVAAITLSGGSTYAYSVKGRFTISRDNAKNTFYLQMKSLKPEDTAVYYCNAVSANYDYVDYEYWGQGTQVNVSS | low polyreactivity |
| KVQLVESGGGLVQAGGSIRLSFAASGLIFLQYCMGWYRQAPGKERELVAAITTRGGRTYYADSVKGRFTISRDNPKNTVYLQMNSLKPEDTAVYYCAADSEQDNLRYYRWVWYYYWGQGPQVTVSS | low polyreactivity |
| KVQLVESGGGLVQAGGSLRLSCAASGGTFSYNAMGWYRQAPGKERELVAAISWSGTRTYYADSVKGRFTISRDNAKNTVYLQMNSLKPEDTAVYYCNKPPPNRGRYDYWGQCTQVTVSS | low polyreactivity |
| KVQLVESGGGLVQAGGSLRLSCAASGLNFGRYAMGWYRQAPGKERELVAAISSSGVRTYYADSVKGRFTISRHNAKNTVYLQMNSLKPADTAVYYCAAAYWSSREDTVIKRYYWGQGTQVTVSS | high polyreactivity |
| KVQLVESGGGLVQAGGSLRLSCAASGNTFYVYTMGWYRQAPGKERDLVAAISSTGDRTYYADSVKGRFTISRDNAKNTVYLQMNSLKPEDTSVYYCADVRYITKEFYWGLGTQVTVSS | high polyreactivity |
| KVQLVESGGGLVQAGGSLRLSCAASGRIFKYYAMGWYRQAPGKERELVAAISARGGSTYYADSVKGRFTISRDNAKNTVYLQMNSLKPEDTAVYYCAAPYLTTQYERMYYWGQGTQVTVSS | high polyreactivity |
| KVQLVESGGGLVQAGGSLRLSCAASGSIISPNAMGWYRQAPGKERELVAGITQSGGSTYYADSVKGRFTISRDNAKNTVYLQMNSLKPEDTAVYYCSVDFILGWYSYYYWGQGTQVTVSS | high polyreactivity |
| KVQLVESGGGLVQAGGSLRLSCAASGSTFSTNAMGRYRQAPGKERELVAAISRTGGSTYYADSVKGRFTISRDNAKNNVYLPMNILKPEDTAVYYSARYSYRGTNVRFDYWGQGTQVTLSS | high polyreactivity |
| KVQLVESGGGLVQAGGSLRLSCAASGSTFSYYAMGWYRQGPGKERELVAAITRSGYSTYYADSVKGRFTISLDNAKNTVYLQMNSLKPEDTAVYYCNTVSRYKYPKPTYYQSSFYYWGQGTQVTVSS | high polyreactivity |
| KVQLVESGGGLVQAGGSLRLSCAATGRIFRPKAMGCYIQAPGKEREMVAAIRSTVGSTFYEYSVKGRFSISRDNAKNTVYLEMNRLKREDTAVYYCAGGTSRQFYYWGQGTQVTVSS | low polyreactivity |
| KVQLVESGGGLVQAGGSLRLSCPASGSIFTSYAMGWYRQAPGKERELVAAISSGGSTNYADSVKGRFTISRDNAKNTVYLQMNSLKPEDTAVYYCAKGSRKSGYKYYHGRVWFGYWGQGTQVTVSS | high polyreactivity |
| KVQLVESGGGLVQAGGSLRLSRAASGFTFGSYAMGWYRQAPGKERELVAAITRRGGSTRYADSVKGRFTISRDNAKNTVYLQMNSLKPEDTAVYYCAAKHGRNYAANALYGYWGQGTQVTVSS | high polyreactivity |
| KVQLVESGGGLVQAGGSLRLTCAASGSTFYIYAMGWYRPAPGKERELVATISSTGSTHYADSVKGRFTISRDNAKNTVFLQMNSLKPEDTAGYYCNPVYFGRYSRRDHWGQGTQVTVSS | high polyreactivity |
| KVQLVESGSGFVQAGGSLGLSCAASGSIFRGYAMGWYRQAPGKERELVAAISWSGGTTYYADSVKGRLTISRDNEKNTFYLQMNSLKPEDTAVYYCAADTTVTITSKYNYWVQGTQVTVSS | low polyreactivity |
| LVQLQESGGGLVQAGGSLRLSCAASGTISPGGYMGWYRQAPGKERELVASINVGGSTNYADSVKGRFTISRDNAKNTVYLQMKSLKPEDNAVYYCAVWGRNRLQLSYWGQGTQVTVSS | low polyreactivity |
| LVQLVESGGGLVQAGGSLRLSCAASGFIFGYYAMGWYRQAPGKERELVAASTRSGGSTRYADSVKGRFTISRDKAKNTVYLQMNSLKPEDSAVYYCAADSCPINLYEDYWGQGTQVTVSS | high polyreactivity |
| LVQLVESGGGLVQAGGSLRLSCAASGFTFPDYAMGWYRPAPGKERELVAAISSDGSTYYADSVKGRFTISRDNAKNTVYLQMNSLKPEDTAVYYCAAYVVWLYGYDYWGQGTQVTVSS | low polyreactivity |
| LVQLVESGGGLVQAGGSLRLSCAASGSTFGYNAMGWYRQAPGKERELVAAISRGAGSTYYADSVKGRFTITRDNAKYTVYLQMNCLKPEDTAVYYCAKERPRGAPAYYSRIYDYWGQGTQVTVSS | high polyreactivity |
| LVQLVESGGGLVQAGGSLRLSCAASGSTFSVNALGWYRQAPGNERELVAAITYSGGSTYYADSVKGRFTISRDTAKNTVYLQMNSLKPEDTAVYYCATRVWFYKSRGGYRERDYWGQGTQVTVSS | high polyreactivity |
| LVQLVESGGGLVQAGGSLRLSCAASGSTSRKYTMGWYRQSPGKERELVARITSSGSSTYYADSVKGRFTISRDTAKNTVYLQMNSLKAEDTADYYCNARAHSDRKSSYIYLPYSYDYWGQGTQVTVSS | high polyreactivity |

| Sequence | polyreactivity (PSR sort gate) |
| --- | --- |
| LVQLVESGGGLVQAGGSLRLSFAASGLIFGRYAMGWYTQAPGKERELVAAISSSGVRTYYADSVKGRFTLSRDNAKNTVYLQLNSLKPEDTAVYYCAAAYWSSPEDTVIKRYYWGQGTQVTVSS | high polyreactivity |
| LVQLVESGRGLVQAGGSLRLSCAASGSTFRINAMGWYRQAPGKERELVADINSGGNTTYADSVKGRFTISRDNAKNTVYLQMKSLIPEDTAVSYCAADPVFDLWEFLLDYGYDYWGQGSQVTVSS | low polyreactivity |
| LVQLVQSGGGLVQAGGSLRLSCAASGLTFDYYAKGWYRQAPGKERELVAVISSGGSTYYADSVKGRITISRDNAKNTVYLQMNSLKTEDTAVYYCAAEIYRYRLRDEYDYWGQGTQVTVSS | low polyreactivity |
| NVQLVESGGGLVQAGGSLRLSCAASGGIFYRYAMGWYRQAPGKEWELVATISRRGGRTYYADSVKGRFTISRDNEKNTVYLQMNSLKPEDTAVYYCAADEWQSGHCLEDDYWGQGTQVTVSS | high polyreactivity |
| NVQLVESGGGLVQAGGSLRLSCAASGRTFNGYAMGWYRQAPGKERDLVASISWSGGRTYYADSVKGRFTISRDNAKNTVYLQMNSLKPEDTAVYYCAATFVNVVGYDYWGQGTQVTVSS | high polyreactivity |
| PDQLVESGGGLVQAGGSLRLSCAASGRIFGTNAMGWYRQAPGKERELVADITSGGSTNYADSVKGRFTISRDNAKNTVYLQMNSLKPEDTAVYYCAADVIGDLRWYRDEYWGQGTQVTVSS | low polyreactivity |
| PDQLVESGGGLVQAGGSLRLSCAASGRTFSGYGMGWYRQAPGKERELVAAFSSSGDSTYYADSVKGRFSIARDNPKNTVYVQMNSLKPDDPAVYYCNDYRRSYNGFRYYYWGQGTQVTVSS | low polyreactivity |
| PVQLLESGRGLVQAGGRLRLSCAASGINFKYNAMGWYRQAPGKERELVAAISWRGGSTYYADSVKGRFTISRDNAKNTVSLQMNSLKPEDTAVYSCAANLAGSSYYDWGQGTQVTVSS | low polyreactivity |
| PVQLQESGGGLVQAGRSLRMSSAASGNIFDADIMGWYRQAPGKERELVACIADGGSTNYADSVKGRFTISRDNAKYTVYLQMNSLKPEDTAVYYCAAIAYPDIPTCFDYDSDYFFRGQGTQVTVSS | low polyreactivity |
| PVQLVESGGGLVQAGGSLRLSCAASGFISQDNAMGWYRQAPAKERELVATISGSGGITYYADSVKGRFTISRANAKTTVYVQMNSLKPEDTAVYYCNNEISYLSWGYDYWGQGTQVTVSS | low polyreactivity |
| PVQLVESGGGLVQAGGSLRLSCAASGFTFSYYAMGWYRQAPGQEWELVAGIDDSCGSTYYADSVKGRFTISRDNAKNTVELQMNSLKPEDTAFYYCNAVYARKYYYSHGYDYWGQGTQVTVSS | high polyreactivity |
| PVQLVESGGGLVQAGGSLRLSCAASGIIFYDYAMGWYRQAPGKERELGATITSGGSTNYADSVKGRFTISRDNAKNTVYLQLNSLKPEDTAVYYCAAGRGLILGGVYGYDYWGQGTQVTVSS | low polyreactivity |
| PVQLVESGGGLVQAGGSLRLSCAASGIIFYRNAMAWYRQAPGKERELVAAITSSGGRTYYAYSVKGRFTISRDNAKNTVYLQMNRLKPEDTAVYYCAATRLYWKIFYGDGDYWGQGTQVTVSS | high polyreactivity |
| PVQLVESGGGLVQAGGSLRLSCAASGRIFAYYAMGWYRQATGKERELVAAITRRGSTNYADSVKGRFTISGDNAKNTVYLQMNSLKQEVTAFYYCAARDAIYGSDYWGQGTQVNVSS | high polyreactivity |
| PVQLVESGGGLVQAGGSLRLSCAASGRTFNSYPMVWYRQAPGKERELVADITSSGGSTYADSVKGRFTISRDNAKNTVYLQMNSLKPEDTAVYYCAVDNISNWAVENDYWGQGTQVTVSS | low polyreactivity |
| PVQLVESGGGLVQAGGSLRLSCAASGRTYYTNAIGWYRQAAGNVRELVAAITGDGTSTYYADSVKGRFTMSRDNATYTVFLQINSLKPEDTAVYYCAATGGDRYEAYSYWGQGTQVTVSS | low polyreactivity |
| PVQLVESGGGLVQAGGSLRLSCAASGSIFFGYAMGWYRQAPGKERELVAAFNGSVITSYADSVKGRFTISRDNAKNPVYVQMNSLKPEDTAYYCNTGSTWGAVIANYDHWGQGTQVTVSS | low polyreactivity |
| PVQLVESGGGLVQAGGSLRLSCACSGRIFIYNSMGWYRQATGKEREFVAAISSSGGSTYYADSVKGRFTISRDNAKNTVYLHLNSLKPEDTAVYYCAAGGWPYSGGWFFQPNYYYWGQGTQVTVSS | low polyreactivity |
| PVQLVESGGGLVQAGGSLRLSCADSGNIFTYNAMGWSRPEPGTERELVAGITSAGGTYYADSVKGRFTISRDNAKNSVYLQMNSLKPEDTAVYYWNVDYDNDTVRGDKIGYSYEYWGHGTQVTVSS | low polyreactivity |
| PVQLVESGGGLVQAGGSLRLSCPASGRILVGNAMGWYRQAPGKERELVAALTSSGDSTNYADSVKGRFTISRDNAKNTVYLQMNSLKPEDTAVYYCAAGSFGTSGFSDVIWEGDYWGQGTQVTVSS | low polyreactivity |
| PVQLVESGGGLVQAGGSLSLTCAASGFIFYDYAMRWYRPAPGKERELVAGITSSGTSTYYADSVKGRFTISRDNAKNTVYLQMNSLKPEDTSVYYFNKAPSWWDVRVPFDYWGQGTQVTVSS | low polyreactivity |
